# Data: patent US11104735B2, “Inhibition of cytokine-induced SH2 protein in NK cells” (The Walter and Eliza Hall Institute of Medical Research, priority 2015, dated 2021)
# How the values were obtained:
# JAK1 = JAK1 (Homo sapiens, UniProt P23458); assay: In vitro kinase inhibition assay, JAK1 kinase domain (JH1) with STAT5b substrate peptide; type: biochemical
# Procedure: Protein kinase assays, including high throughput kinase assays are known in the art as described in, e.g., in Babon et al. (2013) and Von Ahsen et al. (2005). In one exemplary embodiment 130 μM STAT5b peptide (SEQ ID NO:18 […]) is incubated with 5 nM human JAK1 (see SEQ ID NO:11 for corresponding amino acid sequence) at 25° C. for 30-60 min in 20 mM Tris pH 8.0, 100 mM NaCl, 5 mM 2-mercaptoethanol, 0.2 mg ml^−1 bovine serum albumin, 2 mM MgCl2, 100 μM ATP and 1 μCi γ-[^32P]ATP. […] After incubation, the reaction is spotted onto P81 phosphocellulose paper and quenched in 5% H3PO4. The paper is then washed (4×200 ml, 15 min) with 5% H3PO4 and exposed to a phosphorimager plate. Quantitation is performed using phosphorimager software and IC50 curves are then calculated based on integrated pixel counts.
# Kinase inhibition assays were performed essentially as described (Babon et al., 2012). Briefly, 130 μM STAT5b peptide (SEQ ID NO:18 […]) was incubated with 5 nM JAK1 at 25° C. for 30-60 min in 20 mM Tris pH 8.0, 100 mM NaCl, 5 mM 2-mercaptoethanol, 0.2 mg ml^−1 bovine serum albumin, 2 mM MgCl2, 100 μM ATP and 1 mCi γ-[32P]ATP. […] After incubation, the reaction was spotted onto P81 phosphocellulose paper and quenched in 5% H3PO4. The paper was washed (4×200 ml, 15 min) with 5% H3PO4 and exposed to a phosphorimager plate (Fuji). Quantitation was performed using Fuji software and IC50 curves calculated using Graphpad Prism.
# [1] = biological target: T1, JAK1 phosphopeptide (JAK1-Y1034) (Homo sapiens, UniProt P23458); assay: ITC, CIS constructs binding to JAK1 phosphopeptide; conditions: CIS constructs with elongins B and C
# T1 construct: purchased Genscript
# Procedure: 300 μM phosphopeptides were titrated into a 30 μM solution of the GST-CIS-SH2-BC ternary complex. ITC titration curves are shown. The titration curves all fitted well to a single-site model.
# Isothermal calorimetric titrations were performed with a Microcal ITC200 (GE Healthcare). Phosphopeptides were obtained from Genscript. An optimised GST-CIS protein construct was prepared in which the internal PEST region ([…]) was deleted. The resulting ternary GST-CIS-SH2-SB complexes were dialysed against buffer (20 mM Tris pH 8.0, 100 mM NaCl, 2 mM 2-mercaptoethanol). Experiments were performed at 298 K unless stated otherwise. Typically, 12×3.15 μl injections of 300 μM phosphopeptides were titrated into a 30 μM solution of the GST-CIS-SH2-SB ternary complex. The heat of dilution of GST-CIS-SH2-BC was subtracted from the raw data of the binding experiment. Data were analysed using the evaluation software, Microcal Origin version 5.0. The binding curve fitted a single-site binding mode and all KD values were determined from duplicate experiments.
# JAK1, sequence (P23458 875-1153 limits assumed): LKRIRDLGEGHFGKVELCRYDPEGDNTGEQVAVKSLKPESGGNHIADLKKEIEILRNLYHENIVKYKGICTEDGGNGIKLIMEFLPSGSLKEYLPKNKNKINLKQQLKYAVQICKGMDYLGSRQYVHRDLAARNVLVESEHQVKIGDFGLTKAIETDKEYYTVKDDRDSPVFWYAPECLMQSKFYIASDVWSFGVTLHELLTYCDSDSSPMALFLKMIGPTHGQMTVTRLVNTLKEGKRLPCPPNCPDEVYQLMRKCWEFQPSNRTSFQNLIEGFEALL
"IC50 (JAK1; JAK1 JH1, in vitro kinase reaction, read-out: IC50, inhibition of JAK1 phosphorylation of a substrate peptide)","Inhibition of JAK1 relative to inhibition of JAK2, JAK3 or TYK2 (JAK1; JH1 domains of all four JAKs)",Lower efficiency of JAK1 inhibition than SOCS1 (JAK1; compared with SOCS1),Binding affinity (ITC) to JAK1 phosphopeptide [1],Molecule
120 ± 20 nM,≥ 20 fold,100 fold,–,"CIS-SH2-BC complex: recombinant trimeric complex of human GST-CIS construct (hCIS-SH2; residues 66-258) and Elongins B and C (protein, left off: small tags and cut ends, recombinant trimeric complex of human GST-CIS construct (hCIS-SH2; residues 66-258) and Elongins B and C) MVLCVQGSCPLLAVEQIGRRPLWAQSLELPGPAMQPLPTGAFPEEVTEETPVQAENEPKVLDPEGDLLCIAKTFSYLRESGWYWGSITASEARQHLQKMPEGTFLVRDSTHPSYLFTLSVKTTRGPTNVRIEYADSSFRLDSNCLSRPRILAFPDVVSLVQHYVASCAADTRSDSPDPAPTPALPMSKQDAPSDSVLPIPVATAVHLKLVQPFVRRSSARSLQHLCRLVINRLVADVDCLPLPRRMADYLRQYPFQL"
–,–,–,greatest reduction in binding,"CIS-ΔN34: human CIS lacking the N-terminal 34 residues, in complex with elongins B and C (protein, UniProt Q9NSE2 35-258, looked up, fragment, complex with elongins B and C) QPLPAGAFLEEVAEGTPAQTESEPKVLDPEEDLLCIAKTFSYLRESGWYWGSITASEARQHLQKMPEGTFLVRDSTHPSYLFTLSVKTTRGPTNVRIEYADSSFRLDSNCLSRPRILAFPDVVSLVQHYVASCTADTRSDSPDPAPTPALPMPKEDAPSDPALPAPPPATAVHLKLVQPFVRRSSARSLQHLCRLVINRLVADVDCLPLPRRMADYLRQYPFQL"
